Experiment [1] has as its target T1, phospholamban (PLN), wild type, in mouse heart (mouse), P61014.
T1 chain: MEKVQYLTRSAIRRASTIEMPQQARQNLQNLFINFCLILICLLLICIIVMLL
In words: SDS-PAGE and western blot. To be noted: remark: other sources report otherwise. Background: In western blotting, separated proteins are transferred to a membrane and probed.

The target of experiment [2] is T2, synthetic full-length PLN, P61014.
T2 chain: T1 chain
In words: SDS-PAGE. The conditions noted are these: remark: other sources report otherwise.

One may read the stoichiometry N as the number of molecules, sites or subunits per partner or assembly.

B1: phospholamban (PLN), wild type, in mouse heart, P61014 1-52 (natural protein)
chain: T1 chain
For the molecule B1, the stoichiometry N in experiment [1] came out at 5.

B2: synthetic full-length PLN, P61014 1-52 (natural protein)
chain: T1 chain
For the molecule B2, the stoichiometry N in experiment [2] turned out to be 5.
